Data taken from patent US20060229273A1.

Molecular target: hKGF receptor on the surface of PC-3 prostatic carcinoma cells (UniProt P21802)
Assay: saturation binding of 125I-hKGF on PC-3 cells, Scatchard analysis

B1: Recombinant human Keratinocyte Growth Factor (hKGF) (ligand, UniProt P21781 32-194, looked up)
chain: CNDMTPEQMATNVNCSSPERHTRSYDYMEGGDIRVRRLFCRTQWYLRIDKRGKVKGTQEMKNNYNIMEIRTVAVGIVAIKGVESEFYLAMNKEGKLYAKKECNEDCNFKELILENHYNTYASAKWTHNGGEMFVALNQKGIPVRGKKTKKEQKTAHFLPMAIT
Work on B1 yielded a specific hKGF binding sites per cell (sites per cell) of 5000.
